How the values were obtained:
IA-stimulated PBMCs = test: Counts of significant modulations over all treatments of IA-stimulated PBMCs (LPS or PHA); type: cell-based, human
Description: The bioactivity of our plantakines IL-37b and IL-38 was assessed by monitoring the secretion of 11 cytokines, generally regarded as inflammatory markers, from PBMCs stimulated with an IA. Freshly isolated human PBMCs were subjected to various treatments-combinations of the IAs with the plantakines at different concentrations. Two different model IAs were used, either the bacterial lipopolysaccharides (LPS) or a lectin from Phaseolus vulgaris (phytohaemagglutinin, PHA); each of the IAs was applied onto cells separately, each IA was applied at two concentrations: LPS at 150 and 300 μg/mL; PHA at 5 and 10 μg/mL. Each IA at each concentration was applied in combination with one of the two plantakines, each of them at three different concentrations: 1, 10 and 100 ng/ml of the monomeric forms present in the purified extracts. Also included were treatments comprised of either IA at their lower concentrations, in combination with both plantakines at 10 ng/ml concentration in order to assess possible synergistic effects. Cells with only IAs applied represented the reference (positive controls for each concentration), cells without any treatment represented the basal level (negative control). The levels of eleven different pro-inflammatory cytokines secreted into the medium from the PBMCs-GM-SCF, IFNγ. TNFα, IL-1α, IL-1β, IL-6, IL-8, IL-22, IL12, IL-17 and IL-10 were compared between the treatments and the controls. We applied Generalized Estimating Equation (GEE) model for the statistical data analysis. This statistical approach allows for nested observations and was used to test the effects of the plantakines IL-37b and IL-38 and their dosage in the context of IA-stimulated PBMCs inflammatory responses. […]
Non-linear logarithm transformation was performed to address non-normality of distribution of Luminex-derived numeric data. […] Separate analyses were conducted for each of the 11 monitored cytokines and each inflammatory agent/concentration combination. […]

[1] = molecular target: the molecule itself; test: self-association (dimers and multimers) seen on SDS-PAGE and western blot
Description: Western blots membranes were visualized using the enhanced chemiluminescence (ECL) detection kit (GE Healthcare, Cat. No. RPN2232) and imaged with the DNR Bio-Imaging System MicroChemi (RANCOM A/S, Birkerød, Denmark). Densitometry was performed using the TotalLab TL 100 software (Nonlinear Dynamics, Durham, NC).

[2] = separate applications, either IA, all concentrations

B1: plant-produced recombinant human IL-38, mature form C2-W152 with C-terminal 7xHIS tag (ligand)
chain: CSLPMARYYIIKYADQKALYTRDGQLLVGDPVADNCCAEKICILPNRGLARTKVPIFLGIQGGSRCLACVETEEGPSLQLEDVNIEELYKGGEEATRFTFFQSSSGSAFRLEAAAWPGWFLCGPAEPQQPVQLTKESEPSARTKFYFEQSWHHHHHHH
notes: range 2-152; also called rhIL-38; plantakine IL-38
attenuated rather than increased secretion of inflammatory cytokines, frequency ratio (IA-stimulated PBMCs; all significant treatments): 1.7 times
number of treatments in which secretion of inflammatory cytokines was increased (IA-stimulated PBMCs; [2]): 22 treatments
number of treatments in which secretion of inflammatory cytokines was suppressed (IA-stimulated PBMCs; [2]): 30 treatments
binding result [1]: binds

— patent US20250101446A1, “METHOD FOR GENETIC TRANSFORMATION OF PLANT ORGANELLE GENOME AND USES THEREOF” (Solar Grants Biotechnology Inc., priority 2022, published 2025)
